Substitutions are numbered along the chain they refer to.
T1: VEGF (UniProt P15692-9 27-147, limits assumed)
T1 sequence (looked up): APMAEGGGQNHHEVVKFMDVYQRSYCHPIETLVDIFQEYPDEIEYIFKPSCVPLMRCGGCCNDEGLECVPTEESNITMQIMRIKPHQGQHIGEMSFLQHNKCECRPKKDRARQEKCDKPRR

T2: angiopoietin-2 (UniProt O15123 68-496, limits assumed)
T2 sequence (looked up): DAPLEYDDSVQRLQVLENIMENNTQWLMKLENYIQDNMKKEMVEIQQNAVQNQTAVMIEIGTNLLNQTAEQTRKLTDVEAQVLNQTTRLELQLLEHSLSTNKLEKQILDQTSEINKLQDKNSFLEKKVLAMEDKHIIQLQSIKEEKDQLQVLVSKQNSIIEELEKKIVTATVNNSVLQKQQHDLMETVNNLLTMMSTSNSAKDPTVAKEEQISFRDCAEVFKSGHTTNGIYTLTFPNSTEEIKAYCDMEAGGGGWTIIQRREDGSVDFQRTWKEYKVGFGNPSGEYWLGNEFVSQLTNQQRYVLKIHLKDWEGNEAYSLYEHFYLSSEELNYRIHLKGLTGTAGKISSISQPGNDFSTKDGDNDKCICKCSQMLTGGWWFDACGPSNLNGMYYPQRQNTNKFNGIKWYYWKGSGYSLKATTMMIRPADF

B1: Ophthabody variant VII (bispecific antibody)
chain 1: not shown
chain 2: EVQLVESGGGLVQPGGSLRLSCAASGYDFTHYGMNWVRQAPGKGLEWVGWINTYTGEPTYAADFKRRFTFSLDTSKSTAYLQMNCLRAEDTAVYYCAKYPYYYGTSHWYFDVWGQGTLVTVSSGGGPREPQVYTLPPCRDELTKNQVSLWCLVKGFYPSDIAVEWESNGQPENNYKTTPPVLDSDGSFFLYSKLTVDKSRWQQGNVFSCSVMHEALCNHYTQKSLSLSGGGDIQLTQSPSSLSASVGDRVTITCSASQDISNYLNWYQQKPGKAPKVLIYFTSSLHSGVPSRFSGSGSGTDFTLTISSLQPEDFATYYCQQYSTVPWTFGQGTKVEIKGS
B2: Ophthabody variant III (bispecific antibody)
chain 1: not shown
chain 2: EVQLVESGGGLVQPGGSLRLSCAASGYDFTHYGMNWVRQAPGKGLEWVGWINTYTGEPTYAADFKRRFTFSLDTSKSTAYLQMNSLRAEDTAVYYCAKYPYYYGTSHWYFDVWGQGTLVTVSSGGGGSPREPQVYTLPPCRDELTKNQVSLWCLVKGFYPSDIAVEWESNGQPENNYKTTPPVLDSDGSFFLYSKLTVDKSRWQQGNVFSCSVMHEALHNHYTQKSLSLSGGGGSDIQLTQSPSSLSASVGDRVTITCSASQDISNYLNWYQQKPGKAPKVLIYFTSSLHSGVPSRFSGSGSGTDFTLTISSLQPEDFATYYCQQYSTVPWTFGQGTKVEIKAS
B3: Ophthabody variant IV (bispecific antibody)
chain 1: not shown
chain 2: B2 chain 2 with A343G
B4: Ophthabody variant II (bispecific antibody)
chain 1: not shown
chain 2: B1 chain 2 with C85S, C217H
B5: Ophthabody variant VI (bispecific antibody)
chain 1: not shown
chain 2: B1 chain 2 with C85S, G125P, G126P, P127S, C217H, G229P, G230P
B6: Ophthabody variant V (bispecific antibody)
chain 1: not shown
chain 2: B1 chain 2 with C85S, G124P, C217H, G230P
B7: Ophthabody variant I (bispecific antibody)
chain 1: not shown
chain 2: B1 chain 2 with C85S, C217H, G339A

Biological target: T1, VEGF
Assay: cell-based or functional assay

Binder | EC50, luciferase assay (reporter gene assay)
B1 | 0.0021 µM

Biological target: T2, angiopoietin-2
Assay: cell-based or functional assay

Binder | EC50, kinase receptor activation assay
B2 | 0.019 µM
B3 | 0.013 µM
B4 | 0.018 µM
B5 | 0.018 µM
B1 | 0.023 µM
B6 | 0.014 µM
B7 | 0.021 µM
